Test results from publication PMC6128908, “Potent PDZ-Domain PICK1 Inhibitors that Modulate Amyloid Beta-Mediated Synaptic Dysfunction” (Scientific Reports, 2018).
Where no end group is shown, it is not given here.

Columns and labels:
[1] = target: T1, His-MBP PICK1 construct (amino acids 1–356) (UniProt Q9NRD5 1-356); assay: FRET or BRET; high throughput screen with a FRET-based readout: His-MBP PICK1 (1–356) and FITC-labelled 9 amino acid GluA2 C-terminal peptide; compounds at 50 μM; details: both partners purified
T1 construct: it is used here for both assays; Details of the construct are in Supplemental Methods; also called truncated, dimeric form of PICK1 lacking the last 59 residues; source: baculovirus expression, purified (Nickel chromatography, size exclusion chromatography)

[2] = target: T2, PSD95 protein (domains 1–2 in tandem; aminoacids 61–249) (UniProt P78352 61-249); assay: fluorescence polarisation; competition FP: FITC-labeled peptides fixed at 5 nM, non-saturating protein concentrations (PICK1 600 nM; PSD95 PDZ 1–2 8 µM; Shank3 8 µM), unlabeled peptides or compound varied; normalised to binding and tracer-only controls; details: both partners purified
T2 construct: PSD95 (postsynaptic density 95), PDZ domains 1-2 in tandem, amino acids 61-249; also called postsynaptic density 95 (PSD95) PDZ 1–2; source: E. coli, purified
T2 sequence (P78352 61-249): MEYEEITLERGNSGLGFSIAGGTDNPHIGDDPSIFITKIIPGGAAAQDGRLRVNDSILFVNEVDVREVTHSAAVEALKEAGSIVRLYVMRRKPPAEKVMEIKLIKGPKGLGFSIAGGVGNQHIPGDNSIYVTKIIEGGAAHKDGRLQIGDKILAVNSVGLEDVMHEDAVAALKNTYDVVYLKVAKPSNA

T1 sequence (Q9NRD5 1-356): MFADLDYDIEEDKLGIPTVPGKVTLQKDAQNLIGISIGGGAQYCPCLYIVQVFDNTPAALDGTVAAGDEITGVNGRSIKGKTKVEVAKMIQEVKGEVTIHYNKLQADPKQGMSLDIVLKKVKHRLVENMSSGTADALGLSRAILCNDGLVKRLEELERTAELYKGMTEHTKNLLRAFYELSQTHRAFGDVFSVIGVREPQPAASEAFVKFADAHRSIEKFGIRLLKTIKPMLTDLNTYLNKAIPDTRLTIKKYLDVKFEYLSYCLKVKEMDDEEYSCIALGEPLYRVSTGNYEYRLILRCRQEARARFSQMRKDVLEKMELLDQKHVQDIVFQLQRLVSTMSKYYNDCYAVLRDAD

B1: FITC-labeled 9 amino acid C-terminal peptide of GluA2 (875–883) (peptide, UniProt P42262 875-883, looked up)
peptide: VYGIESVKI
modifications: also: FITC label, position not given here
notes: AMPA receptor subunit GluA2, C-terminal 9 amino acids, residues 875-883; also called GluA2 peptide; Fluorescein isothiocyanate-labeled peptide comprising the C-terminal amino acids of GluA2
Q: Does B1 bind [1]?
A: binds

B2: FITC-labeled GluN2B peptide (N-methyl-D-aspartate receptor subunit 2B, 1474–1482) (peptide)
peptide: KLSSIESDV
modifications: also: FITC label, position not given here
notes: N-methyl-D-aspartate receptor subunit 2B (GluN2B), C-terminal amino acids 1474-1482
Q: Does B2 bind [2]?
A: binds
